Molecular target: His6-AstR (Acinetobacter baumannii ATCC 17978VU)
Assay: SEC; size exclusion chromatography with standard curves; purified His6-AstR; Size Exclusion Buffer 50 mM Tris, 300 mM NaCl, pH 8

With His6-AstR (natural protein) the stoichiometry N was 2.
